Measured values published in article PMC7440162 (Cell, 2020).

Tests used:
[1] = target: T1, PTPRF ECD-Fc (human, UniProt P10586 30-1263); test: SPR
T1 sequence: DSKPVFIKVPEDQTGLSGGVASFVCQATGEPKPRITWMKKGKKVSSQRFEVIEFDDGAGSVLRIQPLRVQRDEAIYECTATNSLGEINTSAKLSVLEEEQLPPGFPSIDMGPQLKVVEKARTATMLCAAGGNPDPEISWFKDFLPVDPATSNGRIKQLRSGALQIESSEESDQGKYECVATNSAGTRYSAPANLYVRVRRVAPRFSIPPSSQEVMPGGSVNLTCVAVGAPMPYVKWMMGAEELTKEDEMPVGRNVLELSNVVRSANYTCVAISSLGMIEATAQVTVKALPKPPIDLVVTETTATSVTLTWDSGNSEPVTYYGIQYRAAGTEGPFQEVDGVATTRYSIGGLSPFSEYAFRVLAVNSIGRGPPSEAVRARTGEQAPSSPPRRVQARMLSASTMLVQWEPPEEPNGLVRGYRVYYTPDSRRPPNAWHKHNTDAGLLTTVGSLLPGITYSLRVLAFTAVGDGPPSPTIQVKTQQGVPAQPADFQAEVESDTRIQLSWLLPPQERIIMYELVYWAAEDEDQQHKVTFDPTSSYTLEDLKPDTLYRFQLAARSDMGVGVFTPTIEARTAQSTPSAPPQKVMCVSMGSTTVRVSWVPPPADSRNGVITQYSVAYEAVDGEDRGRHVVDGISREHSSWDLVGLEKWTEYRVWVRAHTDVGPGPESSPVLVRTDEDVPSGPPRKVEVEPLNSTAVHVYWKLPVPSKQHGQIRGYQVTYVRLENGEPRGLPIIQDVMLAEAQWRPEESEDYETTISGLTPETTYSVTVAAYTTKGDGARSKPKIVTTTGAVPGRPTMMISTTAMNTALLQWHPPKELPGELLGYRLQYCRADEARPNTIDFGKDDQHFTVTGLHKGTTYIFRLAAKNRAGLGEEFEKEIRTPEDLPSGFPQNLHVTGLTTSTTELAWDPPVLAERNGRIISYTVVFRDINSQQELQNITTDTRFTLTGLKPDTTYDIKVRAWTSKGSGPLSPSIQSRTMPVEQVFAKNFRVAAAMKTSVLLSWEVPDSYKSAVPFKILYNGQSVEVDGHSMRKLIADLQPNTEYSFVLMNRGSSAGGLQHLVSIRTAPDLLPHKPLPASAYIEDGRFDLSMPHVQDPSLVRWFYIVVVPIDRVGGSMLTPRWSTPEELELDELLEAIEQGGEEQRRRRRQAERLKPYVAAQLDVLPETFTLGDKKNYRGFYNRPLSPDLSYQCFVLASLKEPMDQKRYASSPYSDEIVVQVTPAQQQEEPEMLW

[2] = target: T2, PTPRS ECD-Fc (human, UniProt Q13332 30-1282); test: SPR
T2 sequence: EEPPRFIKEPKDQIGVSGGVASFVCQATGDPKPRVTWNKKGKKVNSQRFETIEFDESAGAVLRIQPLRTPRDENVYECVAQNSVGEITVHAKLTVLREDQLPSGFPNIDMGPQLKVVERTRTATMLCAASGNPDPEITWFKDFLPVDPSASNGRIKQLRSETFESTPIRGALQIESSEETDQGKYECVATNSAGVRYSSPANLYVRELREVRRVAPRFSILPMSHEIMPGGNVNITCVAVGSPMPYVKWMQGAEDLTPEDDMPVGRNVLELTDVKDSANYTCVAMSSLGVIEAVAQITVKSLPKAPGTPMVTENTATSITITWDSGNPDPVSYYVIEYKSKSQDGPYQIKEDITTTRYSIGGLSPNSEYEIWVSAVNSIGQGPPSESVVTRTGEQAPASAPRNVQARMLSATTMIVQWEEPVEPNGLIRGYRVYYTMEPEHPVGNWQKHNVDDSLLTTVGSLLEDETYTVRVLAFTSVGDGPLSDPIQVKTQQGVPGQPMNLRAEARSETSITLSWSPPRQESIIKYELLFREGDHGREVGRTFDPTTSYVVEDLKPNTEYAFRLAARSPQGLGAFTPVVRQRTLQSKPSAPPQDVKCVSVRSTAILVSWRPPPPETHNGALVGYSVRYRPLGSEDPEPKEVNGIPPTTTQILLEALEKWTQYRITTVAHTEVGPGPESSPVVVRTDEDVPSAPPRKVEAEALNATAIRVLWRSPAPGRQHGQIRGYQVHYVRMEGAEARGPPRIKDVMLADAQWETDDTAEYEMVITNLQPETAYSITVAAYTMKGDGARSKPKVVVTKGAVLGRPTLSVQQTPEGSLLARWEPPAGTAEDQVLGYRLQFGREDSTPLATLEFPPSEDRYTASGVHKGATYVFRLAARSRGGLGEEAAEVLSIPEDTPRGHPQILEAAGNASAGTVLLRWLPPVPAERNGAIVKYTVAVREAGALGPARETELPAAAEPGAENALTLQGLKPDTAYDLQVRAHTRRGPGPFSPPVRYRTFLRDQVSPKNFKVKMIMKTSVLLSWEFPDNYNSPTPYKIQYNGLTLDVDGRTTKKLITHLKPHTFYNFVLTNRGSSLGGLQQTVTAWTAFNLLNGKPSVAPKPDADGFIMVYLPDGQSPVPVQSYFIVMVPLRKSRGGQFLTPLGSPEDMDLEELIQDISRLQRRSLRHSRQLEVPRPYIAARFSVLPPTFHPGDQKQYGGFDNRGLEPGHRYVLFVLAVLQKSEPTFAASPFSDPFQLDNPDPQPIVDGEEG

[3] = target: T3, PTPRD ECD-Fc (human, UniProt P23468 21-1265); test: ELISA
T3 sequence: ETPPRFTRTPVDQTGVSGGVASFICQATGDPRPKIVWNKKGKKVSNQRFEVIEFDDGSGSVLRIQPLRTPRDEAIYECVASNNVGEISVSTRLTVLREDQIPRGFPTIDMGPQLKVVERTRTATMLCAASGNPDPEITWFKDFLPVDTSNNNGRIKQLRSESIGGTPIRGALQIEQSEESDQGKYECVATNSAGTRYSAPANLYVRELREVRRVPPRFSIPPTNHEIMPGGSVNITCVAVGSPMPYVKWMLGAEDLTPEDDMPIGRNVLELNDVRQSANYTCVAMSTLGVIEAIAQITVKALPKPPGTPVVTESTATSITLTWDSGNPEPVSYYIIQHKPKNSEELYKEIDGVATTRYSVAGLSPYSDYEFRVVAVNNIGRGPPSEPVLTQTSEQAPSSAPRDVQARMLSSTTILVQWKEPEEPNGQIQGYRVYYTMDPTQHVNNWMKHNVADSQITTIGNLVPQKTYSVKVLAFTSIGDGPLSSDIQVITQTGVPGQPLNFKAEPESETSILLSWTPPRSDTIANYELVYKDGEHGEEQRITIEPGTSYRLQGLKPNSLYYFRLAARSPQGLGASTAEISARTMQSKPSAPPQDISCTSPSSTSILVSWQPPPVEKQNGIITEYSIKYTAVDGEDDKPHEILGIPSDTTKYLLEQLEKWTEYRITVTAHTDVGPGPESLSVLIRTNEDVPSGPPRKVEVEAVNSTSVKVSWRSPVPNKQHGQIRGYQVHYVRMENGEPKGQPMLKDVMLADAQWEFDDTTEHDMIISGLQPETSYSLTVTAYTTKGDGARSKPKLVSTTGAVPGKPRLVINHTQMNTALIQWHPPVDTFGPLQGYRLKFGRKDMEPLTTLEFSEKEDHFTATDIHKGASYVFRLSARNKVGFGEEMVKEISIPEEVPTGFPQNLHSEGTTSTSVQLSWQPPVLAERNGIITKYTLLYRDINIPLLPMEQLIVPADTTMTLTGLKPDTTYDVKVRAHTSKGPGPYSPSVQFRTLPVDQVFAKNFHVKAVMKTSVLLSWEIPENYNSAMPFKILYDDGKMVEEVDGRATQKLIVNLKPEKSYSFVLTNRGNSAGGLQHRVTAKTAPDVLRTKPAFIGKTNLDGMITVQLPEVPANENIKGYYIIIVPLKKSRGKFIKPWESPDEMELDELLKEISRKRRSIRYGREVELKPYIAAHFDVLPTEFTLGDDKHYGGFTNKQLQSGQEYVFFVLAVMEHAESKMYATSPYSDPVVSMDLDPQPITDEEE

Measured: binding result

B1: SALM2 ECD-Fc (Fc fusion)
chain: QPCPGRCICQNVAPTLTMLCAKTGLLFVPPAIDRRVVELRLTDNFIAAVRRRDFANMTSLVHLTLSRNTIGQVAAGAFADLRALRALHLDSNRLAEVRGDQLRGLGNLRHLILGNNQIRRVESAAFDAFLSTVEDLDLSYNNLEALPWEAVGQMVNLNTLTLDHNLIDHIAEGTFVQLHKLVRLDMTSNRLHKLPPDGLFLRSQGTGPKPPTPLTVSFGGNPLHCNCELLWLRRLTREDDLETCATPEHLTDRYFWSIPEEEFLCEPPLITRQAGGRALVVEGQAVSLRCRAVGDPEPVVHWVAPDGRLLGNSSRTRVRGDGTLDVTITTLRDSGTFTCIASNAAGEATAPVEVCVVPLPLMAPPPAAPPPLTEPGSSDIATPGRPGANDSAAERRLVAAELTSNSVLIRWPAQRPVPGIRMYQVQYNSSVDDSLVYRMIPSTSQTFLVNDLAAGRAYDLCVLAVYDDGATALPATRVVGCVQFTTAGDPAPCRPLRAHFLGGTM
modifications: biotin on the AviTag (as SPR ligand)
binds: [1] | [2] | [3]
